IntAct's records for PubMed 20505668

B1: Isocitrate dehydrogenase kinase/phosphatase (Escherichia coli (strain K12)), P11071 (parent)
chain: MPRGLELLIAQTILQGFDAQYGRFLEVTSGAQQRFEQADWHAVQQAMKNRIHLYDHHVGLVVEQLRCITNGQSTDAAFLLRVKEHYTRLLPDYPRFEIAESFFNSVYCRLFDHRSLTPERLFIFSSQPERRFRTIPRPLAKDFHPDHGWESLLMRVISDLPLRLRWQNKSRDIHYIIRHLTETLGTDNLAESHLQVANELFYRNKAAWLVGKLITPSGTLPFLLPIHQTDDGELFIDTCLTTTAEASIVFGFARSYFMVYAPLPAALVEWLREILPGKTTAELYMAIGCQKHAKTESYREYLVYLQGCNEQFIEAPGIRGMVMLVFTLPGFDRVFKVIKDRFAPQKEMSAAHVRACYQLVKEHDRVGRMADTQEFENFVLEKRHISPALMELLLQEAAEKITDLGEQIVIRHLYIERRMVPLNIWLEQVEGQQLRDAIEEYGNAIRQLAAANIFPGDMLFKNFGVTRHGRVVFYDYDEICYMTEVNFRDIPPPRYPEDELASEPWYSVSPGDVFPEEFRHWLCADPRIGPLFEEMHADLFRADYWRALQNRIREGHVEDVYAYRRRQRFSVRYGEMLF
partner: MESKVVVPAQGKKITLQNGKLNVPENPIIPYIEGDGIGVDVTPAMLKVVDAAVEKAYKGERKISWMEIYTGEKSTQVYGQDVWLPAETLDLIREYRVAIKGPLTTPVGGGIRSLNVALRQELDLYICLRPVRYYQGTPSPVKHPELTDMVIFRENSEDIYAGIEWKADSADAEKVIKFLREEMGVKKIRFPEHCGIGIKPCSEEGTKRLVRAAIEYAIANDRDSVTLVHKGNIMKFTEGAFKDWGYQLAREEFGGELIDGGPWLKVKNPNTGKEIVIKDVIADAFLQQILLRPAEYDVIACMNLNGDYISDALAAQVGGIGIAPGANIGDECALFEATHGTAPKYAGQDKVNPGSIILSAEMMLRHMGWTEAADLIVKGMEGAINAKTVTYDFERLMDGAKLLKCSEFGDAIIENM

Variants of: B1
Details: with idh_ecoli icd

Variant	effect of a mutation on the interaction
K336A	disrupting interaction
N462A	disrupting interaction

Continued, values first:

effect of a mutation on the interaction	Variant
disrupting interaction	D475A
disrupting interaction	E497K;E499K

Variants of: B1
Details: with idh_ecoli icd
Remark: another data set of the same source

effect of a mutation on the interaction	Variant
disrupting interaction	K346E
disrupting interaction	D477A
